Test results from the nanobody polyreactivity screen of Harvey et al. (2022).

Experiment: yeast display, Sf9 membrane polyspecificity reagent, FACS + sequencing; frameworks hold sequencing errors
Procedure, shortened: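 After 36–48 hours of galactose induction, yeast (Saccharomyces cerevisiae BJ5465) displaying a synthetic nanobody library were stained at 4 °C for 1 hour with 10% biotinylated, detergent-solubilized Sf9 membrane reagent. Streptavidin microbeads enriched the stained cells before FACS sorting into low and high (top ~1%) gates on anti-HA and streptavidin fluorescence. Each clone's polyreactivity label reflects its gate of origin.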

Sequence	polyreactivity (PSR sort gate)
QVQLVDSGGGLVQAGGSLRLICAASGFIFTDYAMGWYRQAPGKEREFFAAIDWSGGNTYYADSVKGRFTISRDNAKNTVYLQMKSLKPEDTAVYYCAASGSAREYDYWGQGTQVTVSS	low polyreactivity
QVQLVESGGGLVKAGCSLRLSCADSGFIFSSYAMGWYRQAPGIERELVAAITRSGGITYYADSLKGRFTISRDNAKITVYLQMNSLKPEDTAVYYCAARWRYYRGYSRQRPYEFDYWGQGTQVTVSA	high polyreactivity
QVQLVESGGRLVQAGGSLRLSCAASGYTYDRYAMGWYRQAPGKERQLVAAISSSGTSTYYADSVKGRFTISRDNEKNTVYLQMNSLKPEDTAVYYCAATRLKLKFAYWGQGTQVTVSS	high polyreactivity
QVQLVESGGGLVQAGGSLRLSCAASGFTFGGNVMGWYRQAPGKESELVAAITYSGGSTNYADSVKGRFTISRDNAKNTVYLQMNSLKPEDTAVYYCAAGYSYVYWSESAYVYWGQGTQVSVSS	low polyreactivity
QVQLVESGGGLVQAGGSLRLSCAASGSIFRYYAMGWYRQAPGKERELVARISSGGSTYYADSVKGRFTISRDNAKNTVYLQMNSLKPEDTAVYYCNAGAPARYWWEGDYWGQGTQVTVSS	high polyreactivity
QVQLVESGGGLVQAGGSLRLSCAASGSIFSNYAMGWYRQAPGKERELVAAITLSSGGTYYADSVKGRFTISRDNAKNTVYFQMNSLKPEDTAVYYCAAQYKYFIHRYYYWGQGTQVTVSS	high polyreactivity
QVQLVESGGGLVQAGGSLRLSCAASGSTLRAYAMGWSRQAPGKERELVAAINVSSGGTYYADSVKGRFTISRDNAKNTVYLQMNSLKPEDTAVYYCAARARWAGLRYTRYYYWGQGTQVTVSS	high polyreactivity
QVQLVESGGGLVQAGGSLRLSCAASGRIFRYYAMGWYRQAPGKERELVARITNGAITNYADSVKGRFTISRDNAKNTVYLQMNSLKPEDTAVYYCAADPWYTLSVPSGYDYWGQGTQVTVSS	high polyreactivity
QVQLVESGGGLVQAGGSLRLSCAASGSIFPFYAMGWYRQAPGKERELVAAITYSGGSTFYADSVKGRFTISRDNAKNTVYLQMNSLKPEDTAVYYCNAVWRFGSSKYYYWGHGTQVTVSS	high polyreactivity
QVQLVESGGGLVQAVGSLRLSCADSGRLLSYYDMGWYRQAPGKVRELVARLGGTYYADSVKGRFTISRYIAKNTVYLQMNSLKPEDTAVYYCAAEYGYDFLRSYHEYGYWGQGTQVTVSS	low polyreactivity
QVQLVESGGGLVQAGGSLRLSCAASGSTFGYYAMGWYRQAPGKERELVAAITIRGDGTYYADSVKGRFTISRDNAKNTVYLQMNSLIPEDTAVYYCAAEDWLWFDYWGQGTQVTVSS	high polyreactivity
QVQLVESGGGLVQAGGSLRLSCAASGRTFYRYAMGWYRQAPGKERELVAAMSRSGTTYYADSVKGRFTISRDNAQNTVYFQMNSLKPEDTALYYCAAKPAARQRGGDYWGQGTQVTVSS	high polyreactivity
QVQLVESGGGLVQAGGSLRLSCAASGFTFARYTMGWYRQAPGKERELVAAISSRGSSTYYADSVKGRFTISRDNAKNTVYLQMNSLKPEDTAVYYCAASPYDTQTLDYAYWGQGTQVTVSS	high polyreactivity
QVQLVESGGGLVQAGGSLRLICAPSGSTNRYYAIGWSRQAPRKEMELVAPISWRGGSTYYADSVKGRFRISRDNANNTVYLEMNSLKPEDTAVYYCNAAYSYAVRDPIDYGYWGQGTQVTVSS	high polyreactivity
QVQLVESGGGLVQAGGSLRLSCAASGFTFGYYAMGWYRQAPGKERELVAAISKSGGSTYYADSVKGRFTISRDNAKNTVYLQMNSLKPEDCAVYYCAAIASIRGYYYWGQGTQVNVSS	high polyreactivity
QVQLVESGGGLVQAGGSLRLSCAASGFIFQGNAMGWYRQAPGKEREFVAAISWSGGRTYYADSVKGRFTISRDNAKNTVYLQMNSLKPEDTAVYYCAVTPVRFASGGAWMDYWGQGTQVTVSS	high polyreactivity
QVQLVESGGGLVQAGGSLRLSCAASGSIFYHYAMGWYRQAPGKERELVAAISQSGGGTYYADSVKGRFTISRDNAKNTVYLQMNSLKPEDTAVYYCIRLSKQKQEFDYWGQGTQVTVSW	high polyreactivity
QVQLVESGGGLVQAGGSLRLTCAASGSIFTYYVRGWYRQAPGKEMELVARISRRGGSTYYADSVKGRFTISRDNAKNTVYLQMNSLKPEDTAFYYCNRVFYYDRDNYDYWGQGTQVTVSS	high polyreactivity
QVQLVESGGGLVQAGGSLRLSCAASGRTFVSNAMGWYRQAPGKERELVAVITGIGGNTYYADSVKGRFTISRDNAKTTVYLQMYSLKPEDTAVYYCAADQIYSFYPVYGSWIYSMYYWGQGTQVTVSS	low polyreactivity
QVQLVESGGGLVQAGGSLRLSCAASGFTFSPYTMGSYRQAPGKERELVAGITSRGGSTYYADSVKGRFTISRDTAKNTVYLQMNILKPEDSAVYYCAARSPGYYRIVWYDYWGQGTQVTVSS	high polyreactivity
QVHLVESGGGLVQAGGSLRLSCAASGRTYIRNAMGWYRQAPGKERELVAAISSRGGRTYYADSVKGRFTISRDNAKNTVYLQMNSLKPEDTAVYYCAADFTYKLDGYDYWGQGTQVTVSS	high polyreactivity
QVQLVESGGGLVQAGGSLRLSCAASGRTFKWYAMGLYRQAPGKEREFVAGISRGAGRTYYADSVKGRFTISRDNAKNTVYLQMNSLKPEDTAVYYCAAVPSYHSTSPFYYWGQGTQVTVSS	high polyreactivity

Sequence	polyreactivity (PSR sort gate)
QVQLVESGGGLVQAGGSLRLSCAASGRIFGLYAMGWYRQAPGKERELVAAISRRGGTTYYADSVKGRFTISRDNAKNTVYLQMNSLKPEDTAVYYCAAATVYLSWYYWGQGTQVTVSS	high polyreactivity
QVQLVESGGGLVQAGGSLRLSCAASGSTFWYNAMGWYRQAPGKERELVARISYSGGSTYYADSVKGRFTISRDNAKNTVYLQMNSLKPEDTAVYYCAARRPYKYDYWGQGTQVTVSS	high polyreactivity
QVQLVESGGGLVQAGGSLRLSCAASGSIFYLYAMGWYRQAPGKERELVAGITWSGGRTYYADSVKGRFTISRDNAKNTVYLQMNSLKPEDTAVYYCAAYASRYRYGYWGQGTQVTVSS	high polyreactivity
QVQLVESGGGLVQAGGSLRLSCAASGSTFGSNAMGWYREAPGKERELVAAIDANGGSTYYADSVKGRFTISRDNAKNTVYLQMNSLKPEDTAVYYCAAAGYWYYYVPNDYWGQGTQVTVSS	low polyreactivity
QVQLVESGGRLVQAGGSLRLSCAASGSTFGWYAMAWYRPAPGKERELVAAIRSNGGSTYYADSVKGRFTISRDNAKNTVYLQMNSLKPEDTAVYYCAARGSPSKHHWYDYWGQGTQVTVSS	low polyreactivity
QVQLVESGGGLVQAGGSLRLSCAASGFTLDVNAMGLYRHAPGKERELVATISWGGASRYYADSVKGRFTISRDNAKNTVYLQMNRLKPEDTAVFYCAAQFYYPDDKGGYDYWGQGTQVTVSS	low polyreactivity
QVQLVESGGGLDQAGGSLRLSCAASGSTFSYNAKGWYRQAPGKERELVAAITYRGSSTYYADSVKGRFTSSRDNAKNTVDLQMNSLKPEDTAVYYCAVSYVRYRGSGLTAFNYWGQGTQVTVSS	high polyreactivity
QVQLVESGGGLVQAGGSLRLSCAASGSIFPHNAMGWYRQAPGKERELVAAISVSRGSTYYADSVKGRFTISRDNAKNTVYLQMNSLKPEDTAVYYCAAYAYGGRINGYRTYRYNYWGQGTQVTVSS	high polyreactivity
QVQLVESGGGLVQAGGSLRLSCAASGRTLLYYAMGWYRQAPGKERELVAAISRSGGSTSYADSVKGRFTISRDNAKNTVYLQMNSLKPEDTAVYYCNAPRYYYWGQGTQVTVSS	high polyreactivity
HVQLVESGGGLVQAGGSLRLSSTASGSTFGYYAMGWNRQAPGKERELVAAISGIGGSTYYADSVKGRFTISRDNAKNTVYLQMNSLKPEDTAVYFCAADLYYVTWDYNYWGQGTQVTVSS	low polyreactivity
QVQLVESGGGLVQAGGSLRLSCAASGRIFFWYAMGWYRQAPGKERELVAGITSGGSTNYADSVKGRFTISRDNAKNTVYLQMNSLKPEDTAVYYCNTVDSIPIGSGLYYYWGQGTQVTVSS	low polyreactivity
QVQLVESGGGLVQAGGSLRLSCAASGSTFQYYDMGWYRQAPGKERELVASITGSGDSTYYADSVKGRFTISRDNAKNTVYLQMNSLKPEDSAVYYCAAQNTWSGDYDYWGQGTQVTVSS	low polyreactivity
QVQLVESGGGLVQAGGSLRLSCAASGRTFRSYAMGWYRQAPGKERELVVAISLSGGSTYYADSVKGRFTISRDNAKNTVYLQMNSLKPVDTAVYYCNADLIKGTYRWYEGGSQYGYWGQGTQVTVSS	low polyreactivity
QVQLVESGGGLVQAGGSLRLSCAASGSTFNDNAMGWYRPAPGKERELVAAIRWSGGSTYYADSVKGRFTISRDNAKNTVYLQMNSLKPEDTAVYYCAASRRYYLTYRYYYWGQGTQVTVSS	high polyreactivity
QVQLVESGGCLVQAGGSLRLSCAASGFIFSGYVMGWYRQAPGKERELVARIDGGGTTNYADSVKGRFTISRDNAKNTVYLQMNSLKPADTAVYYCNARFGEGFDYWGQGTQVTVSS	low polyreactivity
QVQLVESGGGLVQAGGSLRLSCAASGSTFLGNVMGWYRQAPGKERELVAAITSTGGNTYYADSVKGRFTISRDNAKNTVYLQMNSLKPEDTAVYYCAKKYVWTHNYWGQGTQVTVSS	low polyreactivity
QVQLVESGGGLVQAGGSLRLSCAASGRIYLTNAMGWYRQAPGKERELVAAITSGGSTYYADSVKGRFTISRDNAKNTVYLQMNSLKPEDTAVYYCNADTDRYWPYEYDYWGQGTQVTVSS	low polyreactivity
QVQLVESGGGLVQAGGSLRLSCAASGRIFGPYAMGWYRPAPGKERELVAVISLSGGRTYYADSVKGRFTISRDNAKNTVYLQMNSLKPEDTAVYYCAAARIYVGRRFDFWGQGTQVTVSS	high polyreactivity
QVQLVESGGGLVQAGGSLRLSCAASGITFPLYAMGWYRQAPGKERELVATISGRGGSTYYADSVKGRFTISRDNAKNTVYLQMNSLKPEDTAVYYCNADFRSPYFLLSWYHSGDYWGQGTQVTGSS	low polyreactivity
QVQLVESGGGLVQAGGSLRLSCAASGLTYSNAMGWYRQAPVKERELVAAISWRGGRTYYADSVKGRFTISRDNAKNTVYLQMNSLKPEDTAVYYCAKYAHGHKWYGYWGQGTQVTVSS	low polyreactivity
QVQLVESGGGLVQGGGSLRLSCAASGRILYSYAMGWYRQAPGKERELVAAISWRGGPTYYADSVKGRFTISRDNAKNTVYLQLNSLKPEDTAVSNCAPEFYDHPWMYDYWGQGTQVTVSS	low polyreactivity
